Paper PMC5156306

Target: WT CCR5 (5555), HA-tagged, on transfected HEK293T cells (UniProt P51681)
Assay: competition assay, flow cytometry on cells
Settings: DyLight488-LukE 595 nM, LukD DN 565 nM, read off a plot
[1] = 74.5 nM unlabeled LukE variant, parent: est. 13
[2] = 149 nM unlabeled LukE variant, parent: est. 11
[3] = 298 nM unlabeled LukE variant, parent: est. 10
[4] = 596 nM unlabeled LukE variant, parent: est. 9.2

“WT LukE LukE/LukS^DR1 (DR1, residues 57 to 75, replaced by the corresponding region of LukS-PV)” showed a response [1] of 19 MFI, a response [2] of 18 MFI and a response [3] of 15 MFI. The response [4] was 14 MFI.
With “WT LukE LukE/LukS^DR2 (DR2, residues 140 to 150, replaced by the corresponding region of LukS-PV)” the response [1] was 13 MFI, the response [2] was 11 MFI and the response [3] was 9.8 MFI. The response [4] was 9 MFI.
In the case of “WT LukE LukE/LukS^DR3 (DR3, residues 164 to 178, replaced by the corresponding region of LukS-PV)”, the response [1] is reported as 15 MFI, the response [2] is reported as 12 MFI and the response [3] is reported as 11 MFI. For the same substance, the response [4] was 9.7 MFI.
For “WT LukE LukE/LukS^DR4 (DR4, residues 182 to 196, replaced by the corresponding region of LukS-PV)”, the response [1] was 12 MFI, the response [2] was 9.9 MFI and the response [3] was 9.3 MFI. For the same substance, the response [4] was 8.3 MFI.
